{"source": "paper PMC7005313", "origin": "cited, not measured here", "biological_target": "Tyr99 (UniProt position 100, KDGNGYISAAE)", "assay": "fluorescence", "details": "not stated (the title of the cited paper refers to calcium and pH dependence)"}
{"substance": "Calmodulin (bovine testes) (Bos taurus)", "values": [{"measurement": "pKa", "result": "as low as 7.0"}]}
